Reference: article PMC3189207 (2011)

T1: ABR (Homo sapiens)
T1 chain: RNTLYFSTDV

T2: AHDC1 (Homo sapiens)
T2 chain: PEDTFTVTSL

T3: APC (Homo sapiens)
T3 chain: HSGSYLVTSV

T4: ANKS4B (Homo sapiens)
T4 chain: QPGQLVDTSL

T5: ZO2 (Homo sapiens)
T5 chain: QSARYDTEL

T6: ZNF654 (Homo sapiens)
T6 chain: SSAQPSETIL

B1: Scrib PDZ3 (protein)
chain: PVEEIRLPRAGGPLGLSIVGGSDHSSHPFGVQEPGVFISKVLPRGLAARSGLRVGDRILAVNGQDVRDATHQEAVSALLRPCLELSLLVRRDPAPP
B2: Scrib PDZ2 (protein)
chain: QRHVACLARSERGLGFSIAGGKGSTPYRAGDAGIFVSRIAEGGAAHRAGTLQVGDRVLSINGVDVTEARHDHAVSLLTAASPTIALLLEREAGGP
B3: Scrib PDZ1 (protein)
chain: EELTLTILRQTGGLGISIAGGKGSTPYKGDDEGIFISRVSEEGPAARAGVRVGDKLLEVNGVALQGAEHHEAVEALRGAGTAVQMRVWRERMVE

Assays:
Test in all cases: fluorescence polarization
ABR = molecular target: T1, ABR
AHDC1 = molecular target: T2, AHDC1
APC = molecular target: T3, APC
ANKS4B = molecular target: T4, ANKS4B
ZO2 = molecular target: T5, ZO2
ZNF654 = molecular target: T6, ZNF654

Row | Binder | Kd (ABR) [µM] | Kd (AHDC1) [µM] | Kd (APC) [µM] | Kd (ANKS4B) [µM] | Kd (ZO2) [µM] | Kd (ZNF654) [µM]
1 | B1 | 2.9 | 10.4 | 6.7 | 28.2 | 13.7 | 18.3
2 | B2 | 10.4 | – | 9.5 | – | – | 32.1
3 | B3 | 12.5 | 19.2 | 12.3 | – | 16 | –
